Test results taken from patent US20250152742A1, “COMPOSITIONS AND METHODS FOR NEUROLOGICAL DISEASES” (Trames Bio, Inc., priority 2022, published 2025).

Tested on: engineered chimeric receptor SEQ ID NO: 33 and its mutants (human α7-nAChR ligand binding domain / human GlyRα1 ion pore domain) in Lenti-X 293T cells
Assay: YFP fluorescence quenching anion reporter plate reader assay (percent quench, EC50)
Format: cell-based
Settings: for YFP fluorescence quenching using CNL001 (percent quench): receptor named in row; for YFP fluorescence quenching using Facinicline, 30 nM fac: ligand Facinicline 30 nM; for YFP fluorescence quenching using Facinicline, 300 nM fac: ligand Facinicline 300 nM; for YFP fluorescence quenching using Facinicline, 30 uM fac: ligand Facinicline 30 uM; for YFP fluorescence quenching using TC-6987, 1 uM tc6987: ligand TC-6987 1 uM; for YFP fluorescence quenching using TC-6987, 10 uM tc6987: ligand TC-6987 10 uM; for YFP fluorescence quenching using TC-6987, 500 uM tc6987: ligand TC-6987 500 uM; for YFP fluorescence quenching using Varenicline, 3 nM var: ligand Varenicline 3 nM; for YFP fluorescence quenching using Varenicline, 30 nM var: ligand Varenicline 30 nM; for YFP fluorescence quenching using Varenicline, 300 nM var: ligand Varenicline 300 nM; for YFP fluorescence quenching using Varenicline, 500 nM var: ligand Varenicline 500 nM; for YFP fluorescence quenching using Varenicline, 1 uM var: ligand Varenicline 1 uM
Procedure, shortened: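 Percent quench compares mean YFP signal over the final 10 s with the 15 s baseline before ligand, added in iodide-containing extracellular solution (pH 7.2). Cells were LX293T carrying a YFP anion reporter, transiently transfected with the channel construct; plates were preincubated 30 min at 37 °C.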

[1] = 1 nM CNL001, first column so headed
[2] = 1 nM CNL001, second column so headed
[3] = 3 nM brd (TC-5619/Bradanicline)
[4] = 10 nM CNL001, first column so headed
[5] = 10 nM CNL001, second column so headed
[6] = 30 nM brd (TC-5619/Bradanicline)
[7] = 50 nM CNL001, first column so headed
[8] = 50 nM CNL001, second column so headed
[9] = 100 nM CNL001, first column so headed
[10] = 100 nM CNL001, second column so headed
[11] = 300 nM brd (TC-5619/Bradanicline)
[12] = 1 uM CNL001, first column so headed
[13] = 1 uM CNL001, second column so headed

B1: CODA339: engineered receptor: L131D in SEQ ID NO: 33 (protein)
chain: MRCSPGGVWLALAASLLHVSLQGEFQRKLYKELVKNYNPLERPVANDSQPLTVYFSLSLLQIMDVDEKNQVLTTNIWLQMSWTDHYLQWNVSEYPGVKTVRFPDGQIWKPDILLYNSADERFDATFHTNVDVNSSGHCQYLPPGIFKSSCPMDLKNFPMDVQTCKLKFGSWSYGGWSLDLQMQEADISGYIPNGEWDLVGIPGKRSERFYECCKEPYPDVTFTVTMRRRMGYYLIQMYIPSLLIVILSWISFWINMDAAPARVGLGITTVLTMTTQSSGSRASLPKVSYVKAIDIWMAVCLLFVFSALLEYAAVNFVSRQHKELLRFRRKRRHHKSPMLNLFQEDEAGEGRFNFSAYGMGPACLQAKDGISVKGANNSNTTNPPPAPSKSPEEMRKLFIQRAKKIDKISRIGFPMAFLIFNMFYWIIYKIVRREDVHNQ
modifications: synthetic sequence of chimeric LGIC
[1]
  YFP fluorescence quenching using CNL001 (percent quench): 73.711%
[2]
  YFP fluorescence quenching using CNL001 (percent quench): 76.44%
1 nM brd (TC-5619/Bradanicline)
  YFP fluorescence quenching using TC-5619/Bradanicline (percent quench): 4.12%
[3]
  YFP fluorescence quenching using TC-5619/Bradanicline (percent quench): 19.15%
[4]
  YFP fluorescence quenching using CNL001 (percent quench): 77.049%
[5]
  YFP fluorescence quenching using CNL001 (percent quench): 77.76%
10 nM brd (TC-5619/Bradanicline)
  YFP fluorescence quenching using TC-5619/Bradanicline (percent quench): 68.98%
30 nM TC-6683
  YFP fluorescence quenching using TC-6683 (percent quench): −18.32%
[6]
  YFP fluorescence quenching using TC-5619/Bradanicline (percent quench): 77.29%
[7]
  YFP fluorescence quenching using CNL001 (percent quench): 77.882%
[8]
  YFP fluorescence quenching using CNL001 (percent quench): 78.708%
50 nM abt (ABT-126)
  YFP fluorescence quenching using ABT-126 (percent quench): −16.65%
[9]
  YFP fluorescence quenching using CNL001 (percent quench): 79.567%
[10]
  YFP fluorescence quenching using CNL001 (percent quench): 79.273%
100 nM CNL002
  YFP fluorescence quenching (percent quench): 12.83%
100 nM abt (ABT-126)
  YFP fluorescence quenching using ABT-126 (percent quench): −12.3%
100 nM azd0328
  YFP fluorescence quenching using AZD-0328 (percent quench): 62.87%
100 nM brd (TC-5619/Bradanicline)
  YFP fluorescence quenching using TC-5619/Bradanicline (percent quench): 81.41%
300 nM TC-6683
  YFP fluorescence quenching using TC-6683 (percent quench): −17.25%
300 nM abt (ABT-126)
  YFP fluorescence quenching using ABT-126 (percent quench): 18.5%
300 nM azd0328
  YFP fluorescence quenching using AZD-0328 (percent quench): 77.03%
[11]
  YFP fluorescence quenching using TC-5619/Bradanicline (percent quench): 75.79%
[12]
  YFP fluorescence quenching using CNL001 (percent quench): 79.992%
[13]
  YFP fluorescence quenching using CNL001 (percent quench): 79.927%
1 uM CNL002
  YFP fluorescence quenching (percent quench): 77.73%
1 uM abt (ABT-126)
  YFP fluorescence quenching using ABT-126 (percent quench): 59.09%
1 uM brd (TC-5619/Bradanicline)
  YFP fluorescence quenching using TC-5619/Bradanicline (percent quench): 82.26%
3 uM TC-6683
  YFP fluorescence quenching using TC-6683 (percent quench): −10%
10 uM ach (acetylcholine)
  YFP fluorescence quenching (percent quench): 4.56%
30 uM CNL002
  YFP fluorescence quenching (percent quench): 80.58%
30 uM TC-6683
  YFP fluorescence quenching using TC-6683 (percent quench): −8.51%
30 uM azd0328
  YFP fluorescence quenching using AZD-0328 (percent quench): 78.63%
100 uM TC-6683
  YFP fluorescence quenching using TC-6683 (percent quench): −9.77%
100 uM ach (acetylcholine)
  YFP fluorescence quenching (percent quench): 10.19%
1 mM ach (acetylcholine)
  YFP fluorescence quenching (percent quench): 77.34%
3 mM ach (acetylcholine)
  YFP fluorescence quenching (percent quench): 77.79%
  YFP fluorescence quenching using Facinicline, 30 nM fac: 12.67
  YFP fluorescence quenching using Facinicline, 300 nM fac: 80.4
  YFP fluorescence quenching using Facinicline, 30 uM fac: 82.14
  YFP fluorescence quenching using TC-6987, 1 uM tc6987: 50
  YFP fluorescence quenching using TC-6987, 10 uM tc6987: 80.99
  YFP fluorescence quenching using TC-6987, 500 uM tc6987: 76.77
Ligand Facinicline 10 uM
  YFP fluorescence quenching using Facinicline, 10 uM fac: 82.18
Ligand TC-6987 3 uM
  YFP fluorescence quenching using TC-6987, 3 uM tc6987: 80.39
Ligand TC-6987 5 uM
  YFP fluorescence quenching using TC-6987, 5 uM tc6987: 79.93
Ligand TC-6987 30 uM
  YFP fluorescence quenching using TC-6987, 30 uM tc6987: 83.11
Ligand TC-6987 50 uM
  YFP fluorescence quenching using TC-6987, 50 uM tc6987: 83.18
Ligand TC-6987 100 uM
  YFP fluorescence quenching using TC-6987, 100 uM tc6987: 82.16
Ligand TC-6987 300 uM
  YFP fluorescence quenching using TC-6987, 300 uM tc6987: 64.58
First column
  YFP fluorescence quenching using Varenicline, 3 nM var: −0.902
  YFP fluorescence quenching using Varenicline, 30 nM var: −6.009
  YFP fluorescence quenching using Varenicline, 300 nM var: 49.328
  YFP fluorescence quenching using Varenicline, 500 nM var: 66.7
  YFP fluorescence quenching using Varenicline, 1 uM var: 70.85
Second column
  YFP fluorescence quenching using Varenicline, 3 nM var: −7.62
  YFP fluorescence quenching using Varenicline, 30 nM var: −3.447
  YFP fluorescence quenching using Varenicline, 300 nM var: 47.685
  YFP fluorescence quenching using Varenicline, 500 nM var: 64.798
  YFP fluorescence quenching using Varenicline, 1 uM var: 69.038

B2: CODA340: engineered receptor: L131E in SEQ ID NO: 33 (protein)
chain: MRCSPGGVWLALAASLLHVSLQGEFQRKLYKELVKNYNPLERPVANDSQPLTVYFSLSLLQIMDVDEKNQVLTTNIWLQMSWTDHYLQWNVSEYPGVKTVRFPDGQIWKPDILLYNSADERFDATFHTNVEVNSSGHCQYLPPGIFKSSCPMDLKNFPMDVQTCKLKFGSWSYGGWSLDLQMQEADISGYIPNGEWDLVGIPGKRSERFYECCKEPYPDVTFTVTMRRRMGYYLIQMYIPSLLIVILSWISFWINMDAAPARVGLGITTVLTMTTQSSGSRASLPKVSYVKAIDIWMAVCLLFVFSALLEYAAVNFVSRQHKELLRFRRKRRHHKSPMLNLFQEDEAGEGRFNFSAYGMGPACLQAKDGISVKGANNSNTTNPPPAPSKSPEEMRKLFIQRAKKIDKISRIGFPMAFLIFNMFYWIIYKIVRREDVHNQ
modifications: synthetic sequence of chimeric LGIC
[1]
  YFP fluorescence quenching using CNL001 (percent quench): 76.413%
[2]
  YFP fluorescence quenching using CNL001 (percent quench): 77.144%
[3]
  YFP fluorescence quenching using TC-5619/Bradanicline (percent quench): 68.57%
[4]
  YFP fluorescence quenching using CNL001 (percent quench): 78.258%
[5]
  YFP fluorescence quenching using CNL001 (percent quench): 78.763%
30 nM TC-6683
  YFP fluorescence quenching using TC-6683 (percent quench): 30.14%
[6]
  YFP fluorescence quenching using TC-5619/Bradanicline (percent quench): 76.85%
[7]
  YFP fluorescence quenching using CNL001 (percent quench): 79.757%
[8]
  YFP fluorescence quenching using CNL001 (percent quench): 79.327%
50 nM abt (ABT-126)
  YFP fluorescence quenching using ABT-126 (percent quench): 2.2%
[9]
  YFP fluorescence quenching using CNL001 (percent quench): 79.011%
[10]
  YFP fluorescence quenching using CNL001 (percent quench): 79.948%
100 nM CNL002
  YFP fluorescence quenching (percent quench): 49.97%
100 nM abt (ABT-126)
  YFP fluorescence quenching using ABT-126 (percent quench): 25.39%
100 nM azd0328
  YFP fluorescence quenching using AZD-0328 (percent quench): 82.48%
300 nM TC-6683
  YFP fluorescence quenching using TC-6683 (percent quench): 33.02%
300 nM abt (ABT-126)
  YFP fluorescence quenching using ABT-126 (percent quench): 36.48%
300 nM azd0328
  YFP fluorescence quenching using AZD-0328 (percent quench): 82.04%
[11]
  YFP fluorescence quenching using TC-5619/Bradanicline (percent quench): 78.49%
[12]
  YFP fluorescence quenching using CNL001 (percent quench): 79.855%
[13]
  YFP fluorescence quenching using CNL001 (percent quench): 80.618%
1 uM CNL002
  YFP fluorescence quenching (percent quench): 67.8%
1 uM abt (ABT-126)
  YFP fluorescence quenching using ABT-126 (percent quench): 50.76%
3 uM TC-6683
  YFP fluorescence quenching using TC-6683 (percent quench): 41.68%
10 uM ach (acetylcholine)
  YFP fluorescence quenching (percent quench): 15.29%
30 uM CNL002
  YFP fluorescence quenching (percent quench): 64.58%
30 uM TC-6683
  YFP fluorescence quenching using TC-6683 (percent quench): 35.75%
30 uM ach (acetylcholine)
  YFP fluorescence quenching (percent quench): 66.56%
30 uM azd0328
  YFP fluorescence quenching using AZD-0328 (percent quench): 81.8%
100 uM TC-6683
  YFP fluorescence quenching using TC-6683 (percent quench): 24.32%
100 uM ach (acetylcholine)
  YFP fluorescence quenching (percent quench): 81.31%
1 mM ach (acetylcholine)
  YFP fluorescence quenching (percent quench): 80.77%
3 mM ach (acetylcholine)
  YFP fluorescence quenching (percent quench): 77.31%
  YFP fluorescence quenching using Facinicline, 30 nM fac: 82.51
  YFP fluorescence quenching using Facinicline, 300 nM fac: 82.92
  YFP fluorescence quenching using Facinicline, 30 uM fac: 82.68
  YFP fluorescence quenching using TC-6987, 1 uM tc6987: 80.13
  YFP fluorescence quenching using TC-6987, 10 uM tc6987: 81.29
  YFP fluorescence quenching using TC-6987, 500 uM tc6987: 79.6
Ligand Facinicline 100 nM
  YFP fluorescence quenching using Facinicline, 100 nM fac: 83.6
First column
  YFP fluorescence quenching using Varenicline, 3 nM var: −4.061
  YFP fluorescence quenching using Varenicline, 30 nM var: 62.964
  YFP fluorescence quenching using Varenicline, 300 nM var: 74.912
  YFP fluorescence quenching using Varenicline, 500 nM var: 76.346
  YFP fluorescence quenching using Varenicline, 1 uM var: 75.805
Second column
  YFP fluorescence quenching using Varenicline, 3 nM var: −0.568
  YFP fluorescence quenching using Varenicline, 30 nM var: 63.631
  YFP fluorescence quenching using Varenicline, 300 nM var: 75.084
  YFP fluorescence quenching using Varenicline, 500 nM var: 75.876
  YFP fluorescence quenching using Varenicline, 1 uM var: 74.856
